# T1: alpha-s1 casein from Bos taurus
# T1 chain: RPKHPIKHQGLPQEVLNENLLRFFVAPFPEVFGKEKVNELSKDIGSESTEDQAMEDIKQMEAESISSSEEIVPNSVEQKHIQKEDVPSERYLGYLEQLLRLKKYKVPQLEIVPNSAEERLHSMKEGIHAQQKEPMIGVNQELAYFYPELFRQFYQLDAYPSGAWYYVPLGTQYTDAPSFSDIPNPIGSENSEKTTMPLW
# Biological target: T1, alpha-s1 casein from Bos taurus
Protein,hydrolysis of the first cut in alpha-s1-casein,"small, 6 hours, 11° C. [Volume]","small, 24 hours, 11° C. [Volume]","αs1-I CN, 6 hours, 11° C. [Volume]","αs1-I CN, 24 hours, 11° C. [Volume]","αs1-I CN/αs1 CN, 6 hours, 11° C.","αs1-I CN/αs1 CN, 24 hours, 11° C.","αs1 CN, 6 hours, 11° C. [Volume]","αs1 CN, 24 hours, 11° C. [Volume]","(αSN1-1)/(αSN1), 6 hours, 11° C."
bovine chymosin B variant #1 (A51V) (protein) GEVASVPLTNYLDSQYFGKIYLGTPPQEFTVLFDTGSSDFWVPSIYCKSNVCKNHQRFDPRKSSTFQNLGKPLSIHYGTGSMQGILGYDTVTVSNIVDIQQTVGLSTQEPGDVFTYAEFDGILGMAYPSLASEYSIPVFDNMMNRHLVAQDLFSVYMDRNGQESMLTLGAIDPSYYTGSLHWVPVTVQQYWQFTVDSVTISGVVVACEGGCQAILDTGTSKLVGPSSDILNIQQAIGATQNQYGEFDIDCDNLSYMPTVVFEINGKMYPLTPSAYTSQDQGFCTSGFQSENHSQKWILGDVFIREYYSVFDRANNLVGLAKAI,"show a clear hydrolysis of the first cut in alpha-s1-casein, leading to a rapid formation of fragment alpha-s1-I casein",0,0,1.88e+07,2.36e+07,0.9,4.1,2.05e+07,5.8e+06,–
camel chymosin variant #152 (D290G) (protein) GKVAREPLTSYLDSQYFGKIYIGTPPQEFTVVFDTGSSDLWVPSIYCKSNVCKNHHRFDPRKSSTFRNLGKPLSIHYGTGSMEGFLGYDTVTVSNIVDPNQTVGLSTEQPGEVFTYSEFDGILGLAYPSLASEYSVPVFDNMMDRHLVARDLFSVYMDRNGQGSMLTLGAIDPSYYTGSLHWVPVTLQQYWQFTVDSVTINGVAVACVGGCQAILDTGTSVLFGPSSDILKIQMAIGATENRYGEFDVNCGNLRSMPTVVFEINGRDYPLSPSAYTSKDQGFCTSGFQGGNNSELWILGDVFIREYYSVFDRANNRVGLAKAI,–,–,–,2.18e+07,3.33e+07,–,–,2.51e+07,9.7e+06,0.9
camel chymosin variant #153 (D290L) (protein) GKVAREPLTSYLDSQYFGKIYIGTPPQEFTVVFDTGSSDLWVPSIYCKSNVCKNHHRFDPRKSSTFRNLGKPLSIHYGTGSMEGFLGYDTVTVSNIVDPNQTVGLSTEQPGEVFTYSEFDGILGLAYPSLASEYSVPVFDNMMDRHLVARDLFSVYMDRNGQGSMLTLGAIDPSYYTGSLHWVPVTLQQYWQFTVDSVTINGVAVACVGGCQAILDTGTSVLFGPSSDILKIQMAIGATENRYGEFDVNCGNLRSMPTVVFEINGRDYPLSPSAYTSKDQGFCTSGFQGLNNSELWILGDVFIREYYSVFDRANNRVGLAKAI,–,–,–,2.35e+07,3.49e+07,–,–,2.36e+07,7.1e+06,1
camel chymosin variant #155 (D290Q) (protein) GKVAREPLTSYLDSQYFGKIYIGTPPQEFTVVFDTGSSDLWVPSIYCKSNVCKNHHRFDPRKSSTFRNLGKPLSIHYGTGSMEGFLGYDTVTVSNIVDPNQTVGLSTEQPGEVFTYSEFDGILGLAYPSLASEYSVPVFDNMMDRHLVARDLFSVYMDRNGQGSMLTLGAIDPSYYTGSLHWVPVTLQQYWQFTVDSVTINGVAVACVGGCQAILDTGTSVLFGPSSDILKIQMAIGATENRYGEFDVNCGNLRSMPTVVFEINGRDYPLSPSAYTSKDQGFCTSGFQGQNNSELWILGDVFIREYYSVFDRANNRVGLAKAI,–,–,–,2.03e+07,3.36e+07,–,–,3.02e+07,1.35e+07,0.7
camel chymosin variant #154 (D290M) (protein) GKVAREPLTSYLDSQYFGKIYIGTPPQEFTVVFDTGSSDLWVPSIYCKSNVCKNHHRFDPRKSSTFRNLGKPLSIHYGTGSMEGFLGYDTVTVSNIVDPNQTVGLSTEQPGEVFTYSEFDGILGLAYPSLASEYSVPVFDNMMDRHLVARDLFSVYMDRNGQGSMLTLGAIDPSYYTGSLHWVPVTLQQYWQFTVDSVTINGVAVACVGGCQAILDTGTSVLFGPSSDILKIQMAIGATENRYGEFDVNCGNLRSMPTVVFEINGRDYPLSPSAYTSKDQGFCTSGFQGMNNSELWILGDVFIREYYSVFDRANNRVGLAKAI,–,–,–,2.69e+07,3.77e+07,–,–,2.52e+07,8.3e+06,1.1

# Same assay, conditions: not given
row,Protein,"(αSN1-1)/(αSN1), 24 hours, 11° C."
1,camel chymosin variant #152 (D290G) (protein) GKVAREPLTSYLDSQYFGKIYIGTPPQEFTVVFDTGSSDLWVPSIYCKSNVCKNHHRFDPRKSSTFRNLGKPLSIHYGTGSMEGFLGYDTVTVSNIVDPNQTVGLSTEQPGEVFTYSEFDGILGLAYPSLASEYSVPVFDNMMDRHLVARDLFSVYMDRNGQGSMLTLGAIDPSYYTGSLHWVPVTLQQYWQFTVDSVTINGVAVACVGGCQAILDTGTSVLFGPSSDILKIQMAIGATENRYGEFDVNCGNLRSMPTVVFEINGRDYPLSPSAYTSKDQGFCTSGFQGGNNSELWILGDVFIREYYSVFDRANNRVGLAKAI,3.4
2,camel chymosin variant #153 (D290L) (protein) GKVAREPLTSYLDSQYFGKIYIGTPPQEFTVVFDTGSSDLWVPSIYCKSNVCKNHHRFDPRKSSTFRNLGKPLSIHYGTGSMEGFLGYDTVTVSNIVDPNQTVGLSTEQPGEVFTYSEFDGILGLAYPSLASEYSVPVFDNMMDRHLVARDLFSVYMDRNGQGSMLTLGAIDPSYYTGSLHWVPVTLQQYWQFTVDSVTINGVAVACVGGCQAILDTGTSVLFGPSSDILKIQMAIGATENRYGEFDVNCGNLRSMPTVVFEINGRDYPLSPSAYTSKDQGFCTSGFQGLNNSELWILGDVFIREYYSVFDRANNRVGLAKAI,4.9
3,camel chymosin variant #155 (D290Q) (protein) GKVAREPLTSYLDSQYFGKIYIGTPPQEFTVVFDTGSSDLWVPSIYCKSNVCKNHHRFDPRKSSTFRNLGKPLSIHYGTGSMEGFLGYDTVTVSNIVDPNQTVGLSTEQPGEVFTYSEFDGILGLAYPSLASEYSVPVFDNMMDRHLVARDLFSVYMDRNGQGSMLTLGAIDPSYYTGSLHWVPVTLQQYWQFTVDSVTINGVAVACVGGCQAILDTGTSVLFGPSSDILKIQMAIGATENRYGEFDVNCGNLRSMPTVVFEINGRDYPLSPSAYTSKDQGFCTSGFQGQNNSELWILGDVFIREYYSVFDRANNRVGLAKAI,2.5
4,camel chymosin variant #154 (D290M) (protein) GKVAREPLTSYLDSQYFGKIYIGTPPQEFTVVFDTGSSDLWVPSIYCKSNVCKNHHRFDPRKSSTFRNLGKPLSIHYGTGSMEGFLGYDTVTVSNIVDPNQTVGLSTEQPGEVFTYSEFDGILGLAYPSLASEYSVPVFDNMMDRHLVARDLFSVYMDRNGQGSMLTLGAIDPSYYTGSLHWVPVTLQQYWQFTVDSVTINGVAVACVGGCQAILDTGTSVLFGPSSDILKIQMAIGATENRYGEFDVNCGNLRSMPTVVFEINGRDYPLSPSAYTSKDQGFCTSGFQGMNNSELWILGDVFIREYYSVFDRANNRVGLAKAI,4.6
